These results are taken from patent US20090004749, “METHOD AND KIT FOR DETERMINING THE AMOUNT OF DNA BINDING PROTEIN” (SYSMEX CORPORATION, published 2009).

The target of data set [1] is T1, NF-κB (recombinant, p50) (UniProt P19838 P19838:1-433). The data set can be described thus: fluorescence correlation spectroscopy; 1 nM probe, room temperature; 10 min. As to conditions: tags: Promega; detected with anti-p50 antibody; chain copies: 2; label: 5'-TAMRA; hairpin, stem-loop with AAAA loop. As to the method:
(§1) As a pure-line sample, 0.6 μg/μl solution of recombinant NF-κB was used. […] As the control, a pure-line sample-free sample using the fluorescent-labeled probe Pfw only as a nucleic acid probe was used. In the Reference Example, the sample to which an anti-p50 antibody had further been added was used. The reaction time was 10 minutes for each sample.

The target in data set [2] is T1, NF-κB (recombinant, p50). The data set can be described thus: competition; FCS; unlabeled competitor against 1 nM Pfw. The following applies: tags: Promega; detected with anti-p50 antibody; chain copies: 2; hairpin, stem-loop with AAAA loop. As for the experimental part: as §1
In data set [3] the target is T1, NF-κB (recombinant, p50). Description: competition; FCS; no competition at 50 nM; diffusion time same as without competitor. The following applies: tags: Promega; detected with anti-p50 antibody; chain copies: 2; hairpin, stem-loop with AAAA loop. As to the method: as §1

T1 sequence (P19838 1-433, one chain of several): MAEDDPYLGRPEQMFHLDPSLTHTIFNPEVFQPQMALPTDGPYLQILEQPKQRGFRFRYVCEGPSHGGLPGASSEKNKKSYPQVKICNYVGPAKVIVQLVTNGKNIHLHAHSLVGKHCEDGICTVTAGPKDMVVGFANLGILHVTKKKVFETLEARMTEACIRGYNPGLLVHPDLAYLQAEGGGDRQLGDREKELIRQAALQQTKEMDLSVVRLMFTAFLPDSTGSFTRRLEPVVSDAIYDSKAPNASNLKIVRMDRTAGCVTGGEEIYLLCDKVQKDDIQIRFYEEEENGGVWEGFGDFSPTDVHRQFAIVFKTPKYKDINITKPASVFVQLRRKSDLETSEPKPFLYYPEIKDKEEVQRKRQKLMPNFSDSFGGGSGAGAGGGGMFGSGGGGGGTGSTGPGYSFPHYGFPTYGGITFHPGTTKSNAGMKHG

B1: Pfw (structured_DNA)
DNA: AGTTGAGGGGACTTTCCCAGGCAAAAGCCTGGGAAAGTCCCCTCAACT
Regarding B1, in the data set with NF-κB (recombinant, p50) [1], the binding result was “binds”.

B2: Pw (structured_DNA)
DNA: AGTTGAGGGGACTTTCCCAGGCAAAAGCCTGGGAAAGTCCCCTCAACT
Consider B2, for which, in the data set with NF-κB (recombinant, p50) [2], the binding result is listed as “binds”.

B3: Pn (structured_DNA)
DNA: CAGGCGCGTTTTGACCATCTTAAAAAAGATGGTCAAAACGCGCCTG
In the case of B3, the binding result with NF-κB (recombinant, p50) [3] was “no binding”.
